Earlier results, collected in publication PMC7390727.
Read-outs that look alike come from different tables or passages of the source.

Key:
[1] = target: chemoreceptor C-terminal pentapeptide (Salmonella typhimurium)
[2] = target: chemoreceptor C-terminal pentapeptide (Salmonella typhimurium); remark: listed apart in the source

Substance	Kd [1] [µM]	Kd [2] [nM]
CheB (from UniProt P04042)	160	
CheR (from UniProt P07801)		2000
